The labels stand for the following.
B1: Azoarcus group I ribozyme (parent)
chain: GUGCCUUGCGCCGGGAAACCACGCAAGGGAUGGUGUCAAAUUCGGCGAAACCUAAGCGCCCGCCCGGGCGUAUGGCAACGCCGAGCCAAGCUUCGGCGCCUGCGCCGAUGAAGGUGUAGAGACUAGACGGCACCCACCUAAGGCAAACGCUAUGGUGAAGGCAUAGUCCAGGGAGUGGCGAAAGUCACACAAACCGG

Data on 84 variants can be found in the RNAGym collection of RNA variant scans (doi:10.1093/molbev/msab373).

Variants of B1 are the subject of the data set. In words: reverse-splicing fitness (ratio to wild type); higher = more active; in vitro selection; Mg2+ level not given. In short, it runs like this:
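An in vitro group I ribozyme library with randomized positions was T7-transcribed and gel-purified. In triplicate, 10 pmol RNA in EPPS pH 7.5 was reacted with 50 pmoles of a 30-nt RNA substrate for 1 h at 37 °C across several added MgCl2 levels (1–48 mM), then stopped with EDTA. Products were reverse transcribed from a substrate-complementary primer, PCR-amplified and sequenced (HiSeq 4000). Fitness is a variant's read proportion after selection over that before, normalised to wild type.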
In the case of C82U A145C C150A C169G, the reverse-splicing fitness was 0.00677.
Then C82U A145C C150A C169U, with 0.00854; and C82U A120U A145G C150A C169A U176A, with 0.00482.
Then C82U A120U A145G C150A C169A U176C, with 0.00294.
For the variant C82U A120U A145G C150A C169A U176G, the reverse-splicing fitness was found to be 0.00241.
Then C82U A145C C150G C169U U176G, with 0.00486; and C82U A145C C150G C169U U176C, with 0.00785; and C82U A145C C150G C169U U176A, with 0.00881.
Then C82U A120U A145U C150A C169A U176C, with 0.00203.
Turning to C82U A120U A145U C150A C169A U176A, the reverse-splicing fitness is 0.00221.
As to C82U A120U A145U C150A C169A U176G, the reverse-splicing fitness was 0.00164.
As for C82U A120U C169U U176G, the figure is 0.00164; as for C82U A120U C169U U176A, 0.00362; as for C82U A120U C169U U176C, 0.0045.
Then C82U A120U A145C C150G C169G, with 0.00257.
With C82U A120U A145C C150G C169A, the reverse-splicing fitness is 0.00211.
Then C82U A120U A145C C150G C169U, with 0.00275; and C82U A120U C150U C169G U176A, with 0.0036.
Take C82U A120U C150U C169G U176C: the reverse-splicing fitness was found to be 0.00284.
Then C82U A120U C150U C169G U176G, with 0.00155; and C82U A145C C150U C169A U176C, with 0.00467; and C82U A145C C150U C169A U176G, with 0.00518.
As for C82U A145C C150U C169A U176A, the figure is 0.00827; as for C82U A120U A145G C150U U176C, 0.0607.
For the variant C82U A120U A145G C150U U176A, the reverse-splicing fitness worked out at 0.0299.
Then C82U A120U A145G C150U U176G, with 0.0067.
Then C82U A120U C150A, with 0.0169; and C82U A120U C150U, with 0.0886.
Regarding C82U A120U C150G, the reverse-splicing fitness was found to be 0.0156.
Then C82U A120U A145G C150G C169U U176C, with 0.00545; and C82U A120U A145G C150G C169U U176G, with 0.00348.
As for C82U A120U A145G C150G C169U U176A, the reverse-splicing fitness was 0.00708.
Then C82U A120U A145G U176A, with 0.0429; and C82U A120U A145G U176G, with 0.0114.
As for C82U A120U A145G U176C, the reverse-splicing fitness came to 0.076.
Take C82U A120U C150U U176G: the reverse-splicing fitness was 0.00728.
As for C82U A120U C150U U176A, the reverse-splicing fitness was 0.0245.
For the variant C82U A120U C150U U176C, the reverse-splicing fitness was 0.0451.
Then C82U A145C C169U U176G, with 0.00457.
In the case of C82U A145C C169U U176C, the reverse-splicing fitness came out at 0.00956.
Then C82U A145C C169U U176A, with 0.0118.
As for C82U A145C C150U C169G U176C, the figure is 0.00881; as for C82U A145C C150U C169G U176G, 0.0047.
For C82U A145C C150U C169G U176A, the reverse-splicing fitness turned out to be 0.0158.
Then C82U A120G C169G U176G, with 0.00332; and C82U A120G C169G U176C, with 0.0246.
Then C82U A120G C169G U176A, with 0.0215; and C82U A120U A145U C150U C169G U176A, with 0.00254; and C82U A120U A145U C150U C169G U176C, with 0.00299.
Then C82U A120U A145U C150U C169G U176G, with 0.00157; and C82U A120U A145C C169G U176G, with 0.00143.
With C82U A120U A145C C169G U176C, the reverse-splicing fitness was 0.00167.
Then C82U A120U A145C C169G U176A, with 0.00282; and C82U A120U C150G C169G U176A, with 0.00396.
Then C82U A120U C150G C169G U176G, with 0.0022.
Consider C82U A120U C150G C169G U176C, for which the reverse-splicing fitness turned out to be 0.00212.
As for C82U A120U A145U C169A U176A, the figure is 0.00185; as for C82U A120U A145U C169A U176C, 0.00166; as for C82U A120U A145U C169A U176G, 0.00174.
With C82U A145C C150A U176C, the reverse-splicing fitness was 0.0348.
Then C82U A145C C150A U176G, with 0.0119; and C82U A145C C150A U176A, with 0.031; and C82U A120U A145U C150A C169U U176G, with 0.00172.
As for C82U A120U A145U C150A C169U U176C, the figure is 0.002.
As for C82U A120U A145U C150A C169U U176A, the figure is 0.0025.
With C82U A145C C150G C169G U176G, the reverse-splicing fitness turned out to be 0.00454.
Regarding C82U A145C C150G C169G U176A, the reverse-splicing fitness turned out to be 0.00879.
Then C82U A145C C150G C169G U176C, with 0.00649; and C82U A120U A145C C150G C169A U176G, with 0.00188; and C82U A120U A145C C150G C169A U176A, with 0.00201.
As for C82U A120U A145C C150G C169A U176C, the figure is 0.00196.
C82U A120U: the reverse-splicing fitness amounted to 0.174.
Then C82U A120U C150A C169G, with 0.00313.
Take C82U A120U C150A C169A: the reverse-splicing fitness was 0.00297.
Consider C82U A120U C150A C169U, for which the reverse-splicing fitness worked out at 0.00341.
Then C82U A120U A145C C150A U176C, with 0.00532.
Then C82U A120U A145C C150A U176G, with 0.00282; and C82U A120U A145C C150A U176A, with 0.00377; and C82U A120U C150A C169U U176A, with 0.00411.
Then C82U A120U C150A C169U U176G, with 0.00201; and C82U A120U C150A C169U U176C, with 0.00331.
Turning to C82U A120U C169G U176A, the reverse-splicing fitness was determined as 0.00252.
Consider C82U A120U C169G U176C, for which the reverse-splicing fitness amounted to 0.00306.
On to C82U A120U C169G U176G, for which the reverse-splicing fitness stood at 0.0015.
